Results as given in the supplement of paper PMC10065799, “High-throughput profiling of sequence recognition by tyrosine kinases and SH2 domains using bacterial peptide display” (eLife, 2023).

Experiments:
Fyn = Fyn (UniProt P06241); assay: phosphorylation enrichment, bacterial display (enrichment ratio); higher = better substrate or ligand; peptides without Tyr show the background
Hck = Hck (UniProt P08631); assay: as above
Fer (mouse) = assay: as above
AncSZ = assay: as above
c-Abl (mouse) = assay: as above
FGFR1 = FGFR1 (UniProt P11362); assay: as above
FGFR3 = FGFR3 (UniProt P22607); assay: as above
EPHB1 = EPHB1 (UniProt P54762); assay: as above
Fes = Fes (UniProt P07332); assay: as above
MERTK = MERTK (UniProt Q12866); assay: as above
EPHB2 = EPHB2 (UniProt P29323); assay: as above
c-Src = assay: as above
Jak2 = Jak2 (UniProt O60674); assay: as above
c-Src SH2 = assay: SH2 binding enrichment of the phosphorylated peptide, bacterial display (enrichment ratio); higher = better substrate or ligand; peptides without Tyr show the background
SHP2-C SH2 = assay: as above
Grb2 SH2 = Grb2 SH2 (UniProt P62993); assay: as above
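Wherever SH2 binding enrichment of the phosphorylated peptide, bacterial display is given: peptide library displayed on the E. coli surface as eCPX fusions, selected cells deep-sequenced, score is each peptide's frequency after selection divided by its frequency in the input.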
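Wherever phosphorylation enrichment, bacterial display is given: 11-residue human phosphosite peptides and single-mutation variants displayed on the E. coli surface, counted by deep sequencing, each peptide's frequency after selection divided by its frequency in the unselected input library; frequency after pTyr selection over input frequency; kinase dosed for 20-30% of maximal phosphorylation in three min.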

EPHB2, sequence (P29323 whole entry, looked up): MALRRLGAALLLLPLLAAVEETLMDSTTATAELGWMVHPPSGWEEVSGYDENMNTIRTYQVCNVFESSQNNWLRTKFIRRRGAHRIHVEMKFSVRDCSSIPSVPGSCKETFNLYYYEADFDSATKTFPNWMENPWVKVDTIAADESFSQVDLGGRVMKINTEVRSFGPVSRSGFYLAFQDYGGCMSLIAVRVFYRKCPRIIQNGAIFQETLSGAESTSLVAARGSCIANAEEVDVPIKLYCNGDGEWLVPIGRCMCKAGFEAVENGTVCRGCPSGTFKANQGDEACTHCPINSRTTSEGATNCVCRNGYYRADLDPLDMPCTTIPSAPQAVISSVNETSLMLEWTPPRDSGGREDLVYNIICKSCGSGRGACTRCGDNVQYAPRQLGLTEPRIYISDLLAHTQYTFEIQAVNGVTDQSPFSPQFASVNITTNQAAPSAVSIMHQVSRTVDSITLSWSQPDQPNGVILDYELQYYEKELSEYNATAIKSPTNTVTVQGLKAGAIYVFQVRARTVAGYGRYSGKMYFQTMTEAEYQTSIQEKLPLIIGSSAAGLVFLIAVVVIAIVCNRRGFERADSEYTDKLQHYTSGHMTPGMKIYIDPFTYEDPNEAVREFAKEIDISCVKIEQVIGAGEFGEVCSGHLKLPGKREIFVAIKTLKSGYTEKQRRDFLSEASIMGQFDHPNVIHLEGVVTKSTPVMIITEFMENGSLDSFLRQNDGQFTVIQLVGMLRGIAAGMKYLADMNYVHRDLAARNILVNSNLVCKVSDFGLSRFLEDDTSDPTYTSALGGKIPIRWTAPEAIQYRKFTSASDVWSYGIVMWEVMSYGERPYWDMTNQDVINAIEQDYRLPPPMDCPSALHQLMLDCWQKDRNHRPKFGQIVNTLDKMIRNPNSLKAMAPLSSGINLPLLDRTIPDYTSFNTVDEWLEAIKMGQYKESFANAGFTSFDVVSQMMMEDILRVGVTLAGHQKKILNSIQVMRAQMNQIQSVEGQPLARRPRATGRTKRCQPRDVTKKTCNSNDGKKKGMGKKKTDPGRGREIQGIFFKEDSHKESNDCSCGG
EPHB1, sequence (P54762 whole entry, looked up): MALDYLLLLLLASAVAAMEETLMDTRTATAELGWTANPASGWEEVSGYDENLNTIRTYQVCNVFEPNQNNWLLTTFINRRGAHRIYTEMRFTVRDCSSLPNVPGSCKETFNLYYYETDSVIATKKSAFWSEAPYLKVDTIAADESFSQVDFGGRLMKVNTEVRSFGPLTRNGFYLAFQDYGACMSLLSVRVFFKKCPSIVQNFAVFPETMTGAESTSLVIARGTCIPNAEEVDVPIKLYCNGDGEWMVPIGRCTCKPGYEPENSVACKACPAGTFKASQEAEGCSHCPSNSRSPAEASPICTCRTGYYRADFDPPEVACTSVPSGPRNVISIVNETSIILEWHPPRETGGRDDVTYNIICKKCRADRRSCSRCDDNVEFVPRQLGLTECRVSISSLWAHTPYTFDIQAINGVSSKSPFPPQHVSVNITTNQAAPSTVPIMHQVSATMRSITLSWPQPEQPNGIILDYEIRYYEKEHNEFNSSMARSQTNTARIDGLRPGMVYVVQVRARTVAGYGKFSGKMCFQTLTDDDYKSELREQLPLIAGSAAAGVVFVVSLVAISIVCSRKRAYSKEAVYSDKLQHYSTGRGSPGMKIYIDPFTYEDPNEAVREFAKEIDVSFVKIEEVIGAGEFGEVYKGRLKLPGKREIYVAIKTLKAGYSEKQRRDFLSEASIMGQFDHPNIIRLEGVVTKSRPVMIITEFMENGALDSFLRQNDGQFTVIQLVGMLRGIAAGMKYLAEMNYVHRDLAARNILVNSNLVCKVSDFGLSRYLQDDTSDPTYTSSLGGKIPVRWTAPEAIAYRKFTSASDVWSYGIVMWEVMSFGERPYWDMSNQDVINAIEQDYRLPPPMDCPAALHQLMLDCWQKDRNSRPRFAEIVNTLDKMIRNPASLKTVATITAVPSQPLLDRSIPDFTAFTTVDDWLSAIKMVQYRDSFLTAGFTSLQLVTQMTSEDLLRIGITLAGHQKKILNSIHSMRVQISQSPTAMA
FGFR1, sequence (P11362 whole entry, looked up): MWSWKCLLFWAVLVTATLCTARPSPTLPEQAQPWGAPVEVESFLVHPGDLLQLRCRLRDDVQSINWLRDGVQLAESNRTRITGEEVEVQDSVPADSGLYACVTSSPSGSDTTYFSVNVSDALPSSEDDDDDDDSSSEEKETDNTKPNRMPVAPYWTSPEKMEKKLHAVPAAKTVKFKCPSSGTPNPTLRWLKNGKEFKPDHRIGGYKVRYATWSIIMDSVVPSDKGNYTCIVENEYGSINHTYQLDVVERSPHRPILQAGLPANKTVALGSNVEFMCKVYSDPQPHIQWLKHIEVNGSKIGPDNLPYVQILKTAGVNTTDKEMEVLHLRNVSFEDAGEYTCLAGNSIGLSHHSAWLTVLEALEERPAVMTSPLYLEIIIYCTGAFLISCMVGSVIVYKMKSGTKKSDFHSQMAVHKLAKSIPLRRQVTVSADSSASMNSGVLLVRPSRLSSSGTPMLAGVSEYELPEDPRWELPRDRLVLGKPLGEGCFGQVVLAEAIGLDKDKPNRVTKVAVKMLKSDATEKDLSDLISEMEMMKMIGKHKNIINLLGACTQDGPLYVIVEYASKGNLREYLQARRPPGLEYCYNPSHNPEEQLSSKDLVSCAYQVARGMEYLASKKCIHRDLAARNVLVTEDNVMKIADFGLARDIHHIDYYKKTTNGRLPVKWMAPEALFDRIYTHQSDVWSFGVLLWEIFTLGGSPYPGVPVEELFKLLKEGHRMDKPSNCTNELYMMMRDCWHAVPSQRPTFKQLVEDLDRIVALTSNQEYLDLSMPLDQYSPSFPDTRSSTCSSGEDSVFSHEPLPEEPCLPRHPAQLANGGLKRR
Jak2, sequence (O60674 whole entry, looked up): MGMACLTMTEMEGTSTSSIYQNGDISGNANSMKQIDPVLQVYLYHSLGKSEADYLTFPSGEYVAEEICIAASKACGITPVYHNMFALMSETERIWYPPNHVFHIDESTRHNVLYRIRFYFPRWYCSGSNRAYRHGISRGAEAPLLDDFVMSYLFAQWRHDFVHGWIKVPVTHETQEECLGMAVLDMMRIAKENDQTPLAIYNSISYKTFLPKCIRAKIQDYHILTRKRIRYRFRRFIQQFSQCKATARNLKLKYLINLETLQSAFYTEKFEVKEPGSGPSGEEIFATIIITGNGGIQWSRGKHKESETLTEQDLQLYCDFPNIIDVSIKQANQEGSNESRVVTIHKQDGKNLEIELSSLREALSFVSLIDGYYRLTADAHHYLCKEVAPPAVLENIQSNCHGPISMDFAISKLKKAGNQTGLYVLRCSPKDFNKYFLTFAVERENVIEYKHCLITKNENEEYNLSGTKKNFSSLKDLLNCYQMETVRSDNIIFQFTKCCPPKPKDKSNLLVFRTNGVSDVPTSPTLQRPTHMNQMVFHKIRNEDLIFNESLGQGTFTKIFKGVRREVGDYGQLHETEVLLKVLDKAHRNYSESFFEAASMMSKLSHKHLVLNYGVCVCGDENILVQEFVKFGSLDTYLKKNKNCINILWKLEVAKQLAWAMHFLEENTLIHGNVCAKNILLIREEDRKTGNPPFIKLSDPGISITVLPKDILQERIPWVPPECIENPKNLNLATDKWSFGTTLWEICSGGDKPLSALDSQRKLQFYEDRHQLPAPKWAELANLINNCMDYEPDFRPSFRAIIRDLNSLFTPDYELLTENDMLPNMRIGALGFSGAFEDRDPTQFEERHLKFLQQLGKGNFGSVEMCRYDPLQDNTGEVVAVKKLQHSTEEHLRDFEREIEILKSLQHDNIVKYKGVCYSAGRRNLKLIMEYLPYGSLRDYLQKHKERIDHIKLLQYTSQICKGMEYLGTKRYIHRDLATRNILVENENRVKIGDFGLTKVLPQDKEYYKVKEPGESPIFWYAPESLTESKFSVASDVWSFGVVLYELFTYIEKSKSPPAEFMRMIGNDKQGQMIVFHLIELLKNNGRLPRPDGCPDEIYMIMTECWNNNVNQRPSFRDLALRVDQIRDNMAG
MERTK, sequence (Q12866 whole entry, looked up): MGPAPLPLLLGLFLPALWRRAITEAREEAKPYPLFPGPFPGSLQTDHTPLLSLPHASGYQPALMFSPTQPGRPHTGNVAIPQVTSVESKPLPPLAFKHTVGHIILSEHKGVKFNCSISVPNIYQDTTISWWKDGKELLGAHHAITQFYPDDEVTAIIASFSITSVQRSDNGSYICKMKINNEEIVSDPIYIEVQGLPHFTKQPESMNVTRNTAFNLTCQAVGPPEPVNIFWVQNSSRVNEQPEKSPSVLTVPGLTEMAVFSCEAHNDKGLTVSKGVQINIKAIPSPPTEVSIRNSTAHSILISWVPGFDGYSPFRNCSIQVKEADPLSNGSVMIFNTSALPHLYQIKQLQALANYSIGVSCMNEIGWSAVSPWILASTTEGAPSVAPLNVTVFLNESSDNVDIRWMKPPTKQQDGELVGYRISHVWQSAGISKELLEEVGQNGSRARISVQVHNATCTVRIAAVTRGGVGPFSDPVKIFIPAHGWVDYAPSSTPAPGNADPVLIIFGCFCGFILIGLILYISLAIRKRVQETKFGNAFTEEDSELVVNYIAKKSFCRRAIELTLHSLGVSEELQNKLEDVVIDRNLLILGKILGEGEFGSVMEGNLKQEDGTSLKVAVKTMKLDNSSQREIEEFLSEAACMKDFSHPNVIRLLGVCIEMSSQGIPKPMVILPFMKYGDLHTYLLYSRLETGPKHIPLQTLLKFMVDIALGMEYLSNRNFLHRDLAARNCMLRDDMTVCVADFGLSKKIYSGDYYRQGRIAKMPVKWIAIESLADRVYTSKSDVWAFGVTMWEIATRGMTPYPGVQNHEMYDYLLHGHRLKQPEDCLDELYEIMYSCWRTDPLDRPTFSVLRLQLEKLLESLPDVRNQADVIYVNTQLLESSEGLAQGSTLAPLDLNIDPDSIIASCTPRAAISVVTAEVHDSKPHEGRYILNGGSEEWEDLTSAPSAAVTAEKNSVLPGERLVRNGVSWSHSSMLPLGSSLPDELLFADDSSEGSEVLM

Sequence | phosphorylation enrichment (Fyn) | phosphorylation enrichment (Hck) | phosphorylation enrichment (Fer (mouse)) | phosphorylation enrichment (AncSZ) | phosphorylation enrichment (c-Abl (mouse)) | phosphorylation enrichment (FGFR1) | phosphorylation enrichment (FGFR3) | phosphorylation enrichment (EPHB1) | phosphorylation enrichment (Fes) | phosphorylation enrichment (MERTK) | phosphorylation enrichment (EPHB2) | phosphorylation enrichment (c-Src) | phosphorylation enrichment (Jak2) | SH2 binding enrichment (c-Src SH2) | SH2 binding enrichment (SHP2-C SH2) | SH2 binding enrichment (Grb2 SH2)
QPAGNYSLSSV [ARFGAP3_Y473] | 0.424 | 0.715 | 0.623 | 0.985 | 0.996 | 0.414 | 0.75 | 0.866 | 0.946 | 0.93 | 0.638 | 0.798 | 0.874 | 0.486 | 1 | 0.812
QPDLLYDHIQP [TRRAP_Y862_F860L] | 13.5 | 15.1 | 25 | 3.04 | 3.03 | 1.02 | 1.5 | 15.2 | 2.01 | 14.4 | 18.1 | 10.3 | 1.27 | 0.832 | 0.517 | 0.733
QQIFTYDSGIH [JUP_Y22_T19I_YF] | 0.897 | 0.833 | 0.653 | 1.46 | 1.14 | 0.784 | 1.09 | 0.967 | 1.32 | 0.901 | 0.991 | 0.939 | 1.2 | 0.653 | 0.793 | 0.936
QQPGPYDRPGA [HNRNPH2_Y210_R206Q] | 0.565 | 0.662 | 0.551 | 0.683 | 0.567 | 0.66 | 0.619 | 0.528 | 1.39 | 0.599 | 0.493 | 0.577 | 0.643 | 0.857 | 0.689 | 0.905
QRDSSYFWEIE [RAF1_Y340_YF] | 0.966 | 0.934 | 0.813 | 2.48 | 0.989 | 1.04 | 1.25 | 0.776 | 1.92 | 0.774 | 0.968 | 0.712 | 3.31 | 0.98 | 0.917 | 0.936
QTENKYDSVSG [EIF2AK3_Y565] | 0.604 | 0.783 | 0.384 | 0.865 | 0.56 | 0.912 | 0.64 | 0.407 | 1.13 | 0.615 | 0.561 | 0.467 | 1.98 | 7.1 | 0.724 | 0.839
QYQLKYSETPF [SIX6OS1_Y129] | 0.591 | 0.722 | 0.43 | 1 | 0.808 | 0.598 | 0.769 | 0.743 | 1.1 | 0.838 | 0.907 | 0.519 | 0.7 | 0.607 | 0.598 | 0.868
RAFRHYLLKQK [SCN2A_Y1919_R1918H_YF] | 1.16 | 1.28 | 1.49 | 1.16 | 1.48 | 0.955 | 1.68 | 0.793 | 1.59 | 0.97 | 1.67 | 0.907 | 0.912 | 0.468 | 0.439 | 0.939
RAIGHYSATSK [FAM120A_Y328_Y327H] | 0.522 | 0.942 | 0.542 | 0.964 | 0.777 | 0.576 | 0.892 | 0.684 | 0.97 | 0.757 | 0.819 | 0.665 | 0.665 | 0.619 | 0.81 | 0.702
RAILDYIASKF [GSTA3_Y74_N73D_YF] | 0.433 | 0.395 | 0.542 | 0.674 | 0.603 | 0.567 | 0.79 | 0.479 | 1.02 | 0.375 | 0.445 | 0.358 | 0.755 | 0.689 | 1.06 | 1.08
RAYRRYLLKQK [SCN2A_Y1919] | 0.559 | 0.51 | 0.415 | 0.729 | 0.42 | 0.489 | 0.495 | 0.353 | 0.491 | 0.387 | 0.468 | 0.446 | 0.486 | 0.514 | 0.573 | 0.61
RCNHPYLINGA [CHD7_Y1256_C1251R] | 0.401 | 0.506 | 0.505 | 0.664 | 0.578 | 0.464 | 0.569 | 0.249 | 0.68 | 0.429 | 0.518 | 0.481 | 0.646 | 0.732 | 0.693 | 0.931
RDHYGYRQSVT [CD55_Y245] | 0.866 | 0.806 | 0.748 | 1.22 | 0.794 | 0.747 | 0.339 | 0.883 | 0.794 | 0.774 | 0.472 | 0.822 | 0.455 | 0.484 | 0.775 | 0.98
REIHDYIKHLG [UNC13C_Y308_D304E] | 0.821 | 0.511 | 0.651 | 0.631 | 0.794 | 0.371 | 0.741 | 0.699 | 1.26 | 0.723 | 0.663 | 1.02 | 0.843 | 0.512 | 0.475 | 0.788
RELGEYPLAEF [ALDH1A3_Y492_A493P_YF] | 0.636 | 0.536 | 0.484 | 1.18 | 0.753 | 0.709 | 0.742 | 0.511 | 1.14 | 0.614 | 0.645 | 0.582 | 1.41 | 2.13 | 0.617 | 0.763
REQREYLEQLN [CCDC88B_Y1277_D1279E] | 0.531 | 0.706 | 0.523 | 1.18 | 0.786 | 0.611 | 0.755 | 0.54 | 0.939 | 0.58 | 0.559 | 0.529 | 1.15 | 0.52 | 0.73 | 0.679
